Common to all, as to assay: binding, other
Test [1] deals with T1, KLK4 peptide on HLA (human).
T1 peptide: KLYDPLYHPSM

The target in the next test is T2, MAGEB2 peptide on HLA (human).
T2 peptide: KVLEFLAKV

A further test has as its target T3, KLK3 peptide on HLA (human).
T3 peptide: KVMDLPTQEPAL

In test [2] the target is T4, MAGEC1 peptide on HLA (human).
T4 peptide: ILQSSPESA

For test [3], the target named is T5, MAGEC1 peptide on HLA (human).
T5 peptide: FLAMLKNTV

Test [4] deals with T6, KLK4 peptide on HLA (human).
T6 peptide: FQNSYTIGL

Another test addresses T7, NPSR1 peptide on HLA (human).
T7 peptide: VIIQNLPAL

20 molecules from US20230346885A1 (published 2023) can be followed below.

B1: TCR of SEQ ID NOs 399 and 400 (TCR, V domains shown)
Valpha: KQEVTQIPAALSVPEGENLVLNCSFTDSAIYNLQWFRQDPGKGLTSLLLIRSSQREQTSGRLNASLDKSSGRSTLYIAASQPGDSATYLCAVMSSQGGSEKLVFGKGTKLTVNP
Vbeta: NAGVTQTPKFRVLKTGQSMTLLCAQDMNHEYMYWYRQDPGMGLRLIHYSVGEGTTAKGEVPDGYNVSRLKKQNFLLGLESAAPSQTSVYFCASKGLVADTIYFGEGSWLTVV
For the molecule B1, the binding result in the test with KLK4 peptide on HLA [1] is given as “recognises”.

B2: TCR of SEQ ID NOs 419 and 420 (TCR, V domains shown)
Valpha: KQEVTQIPAALSVPEGENLVLNCSFTDSAIYNLQWFRQDPGKGLTSLLLIQSSQREQTSGRLNASLDKSSGRSTLYIAASQPGDSATYLCAVSGGTTDSWGKLQFGAGTQVVVTP
Vbeta: NAGVTQTPKFQVLKTGQSMTLQCAQDMNHEYMSWYRQDPGMGLRLIHYSVGAGITDQGEVPNGYNVSRSTTEDFPLRLLSAAPSQTSVYFCASSFTPYEGYTFGSGTRLTVV
With B2, the binding result with MAGEB2 peptide on HLA is on record as “recognises”.

B3: TCR of SEQ ID NOs 423 and 424 (TCR, V domains shown)
Valpha: KQEVTQIPAALSVPEGENLVLNCSFTDSAIYNLQWFRQDPGKGLTSLLLIQSSQREQTSGRLNASLDKSSGRSTLYIAASQPGDSATYLCAVSGGATDSWGKLQFGAGTQVVVTP
Vbeta: NAGVTQTPKFQVLKTGQSMTLQCAQDMNHEYMSWYRQDPGMGLRLIHYSVGAGITDQGEVPNGYNVSRSTTEDFPLRLLSAAPSQTSVYFCASSYSPWTEAFFGQGTRLTVV
As for B3, the binding result in the test with MAGEB2 peptide on HLA is recorded as “recognises”.

B4: TCR of SEQ ID NOs 391 and 392 (TCR, V domains shown)
Valpha: QKEVEQNSGPLSVPEGAIASLNCTYSDRGSQSFFWYRQYSGKSPELIMSIYSNGDKEDGRFTAQLNKASQYVSLLIRDSQPSDSATYLCAVNSPGNARLMFGDGTQLVVKP
Vbeta: NAGVTQTPKFQVLKTGQSMTLQCAQDMNHEYMSWYRQDPGMGLRLIHYSVGAGITDQGEVPNGYNVSRSTTEDFPLRLLSAAPSQTSVYFCASSYWRGGLEQYFGPGTRLTVT
In the case of B4, the binding result in the test with KLK3 peptide on HLA is “recognises”.

B5: TCR of SEQ ID NOs 429 and 430 (TCR, V domains shown)
Valpha: KQEVTQIPAALSVPEGENLVLNCSFTDSAIYNLQWFRQDPGKGLTSLLLIQSSQREQTSGRLNASLDKSSGRSTLYIAASQPGDSATYLCAVRPFSGGYNKLIFGAGTRLAVHP
Vbeta: NAGVTQTPKFQVLKTGQSMTLQCTQDMNHNYMYWYRQDPGMGLKLIYYSVGAGITDQGEVPNGYNVSRSTTEDFPLRLLSAAPSQTSVYFCASSPEYGYYEQYFGPGTRLTVT
Turning to B5, in the test with MAGEC1 peptide on HLA [2], the binding result is on record as “recognises”.

B6: TCR of SEQ ID NOs 433 and 434 (TCR, V domains shown)
Valpha: KQEVTQIPAALSVPEGENLVLNCSFTDSAIYNLQWFRQDPGKGLTSLLLIQSSQREQTSGRLNASLDKSSGRSTLYIAASQPGDSATYLCAVESGNQFYFGTGTSLTVIP
Vbeta: NAGVTQTPKFQVLKTGQSMTLQCAQDMNHEYMSWYRQDPGMGLRLIHYSVGVGITDQGEVPNGYNVSRSTTEDFPLRLLSAAPSQTSVYFCASSFGQGSSPLHFGNGTRLTVT
In the case of B6, the binding result with MAGEC1 peptide on HLA [3] is “recognises”.

B7: TCR of SEQ ID NOs 407 and 408 (TCR, V domains shown)
Valpha: KQEVTQIPAALSVPEGENLVLNCSFTDSAIYNLQWFRQDPGKGLTSLLLIQSSQREQTSGRLNASLDKSSGRSTLYIAASQPGDSATYLCAVRSYNTDKLIFGTGTRLQVFP
Vbeta: NAGVTQTPKFRILKIGQSMTLQCTQDMNHNYMYWYRQDPGMGLKLIYYSVGAGITDKGEVPNGYNVSRSTTEDFPLRLELAAPSQTSVYFCASSYSSWTEAFFGQGTRLTVV
With B7, the binding result in the test with KLK4 peptide on HLA [4] is listed as “recognises”.

B8: TCR of SEQ ID NOs 435 and 436 (TCR, V domains shown)
Valpha: KQEVTQIPAALSVPEGENLVLNCSFTDSAIYNLQWFRQDPGKGLTSLLLIQSSQREQTSGRLNASLDKSSGRSTLYIAASQPGDSATYLCAALSYNTDKLIFGTGTRLQVFP
Vbeta: NAGVTQTPKFRVLKTGQSMTLLCAQDMNHEYMYWYRQDPGMGLRLIHYSVGEGTTAKGEVPDGYNVSRLKKQNFLLGLESAAPSQTSVYFCASKDIPYTEAFFGQGTRLTVV
As for B8, the binding result with MAGEC1 peptide on HLA [3] is reported as “recognises”.

B9: TCR of SEQ ID NOs 409 and 410 (TCR, V domains shown)
Valpha: KQEVTQIPAALSVPEGENLVLNCSFTDSAIYNLQWFRQDPGKGLTSLLLIQSSQREQTSGRLNASLDKSSGRSTLYIAASQPGDSATYLCAVTAYNTDKLIFGTGTRLQVFP
Vbeta: NAGVTQTPKFRILKIGQSMTLQCTQDMNHNYMYWYRQDPGMGLKLIYYSVGAGITDKGEVPNGYNVSRSTTEDFPLRLLSAAPSQTSVYFCASSYYPGTSTEAFFGQGTRLTVV
As for B9, the binding result with KLK4 peptide on HLA [4] is given as “recognises”.

B10: TCR of SEQ ID NOs 395 and 396 (TCR, V domains shown)
Valpha: KQEVTQIPAALSVPEGENLVLNCSFTDSAIYNLQWFRQDPGKGLTSLLLIQSSQREQTSGRLNASLDKSSGRSTLYIAASQPGDSATYLCAVLDSWGKLQFGAGTQVVVTP
Vbeta: NAGVTQTPKFRVLKTGQSMTLLCAQDMNHEYMYWYRQDPGMGLRLIHYSVGEGTTAKGEVPDGYNVSRLKKQNFLLGLESAAPSQTSVYFCASSGLLSPDTQYFGPGTRLKVL
Consider B10, for which the binding result in the test with KLK4 peptide on HLA [1] was “recognises”.

B11: TCR of SEQ ID NOs 421 and 422 (TCR, V domains shown)
Valpha: KQEVTQIPAALSVPEGENLVLNCSFTDSAIYNLQWFRQDPGKGLTSLLLIQSSQREQTSGRLNASLDKSSGRSTLYIAASQPGDSATYLCAVESDDYKLSFGAGTTVTVRA
Vbeta: NAGVTQTPKFQVLKTGQSMTLQCAQDMNHNSMYWYRQDPGMGLRLIYYSASEGTTDKGEVPNGYNVSRLNKREFSLRLESAAPSQTSVYFCASSEALGGVTDTQYFGPGTRLTVL
Consider B11, for which the binding result with MAGEB2 peptide on HLA is on record as “recognises”.

B12: TCR of SEQ ID NOs 411 and 412 (TCR, V domains shown)
Valpha: KQEVTQIPAALSVPEGENLVLNCSFTDSAIYNLQWFRQDPGKGLTSLLLIQSSQREQTSGRLNASLDKSSGRSTLYIAASQPGDSATYLCAVSGGSYIPTFGRGTSLIVHP
Vbeta: NAGVTQTPKFRVLKTGQSMTLLCAQDMNHEYMYWYRQDPGMGLRLIHYSVGEGTTDKGEVPDGYNVSRSTTEDFPLRLLSAAPSQTSVYFCASRKAGYGYTFGSGTRLTVV
Consider B12, for which the binding result in the test with KLK4 peptide on HLA [4] was “recognises”.

B13: TCR of SEQ ID NOs 389 and 390 (TCR, V domains shown)
Valpha: QKEVEQNSGPLSVPEGAIASLNCTYSDRGSQSFFWYRQYSGKSPELIMSIYSNGDKEDGRFTAQLNKASQYVSLLIRDSQPSDSATYLCAVWGKSGGYNKLIFGAGTRLAVHP
Vbeta: NAGVTQTPKFGILKTGQSMTLQCAQDMNHEYMSWYRQDPGMGLRLIHYSVGAGITDKGEVPNGYNVSRSTTEDFPLRLELAAPSQTSVYFCASSYSSPLRQDNSPLHFGNGTRLTVT
With B13, in the test with KLK3 peptide on HLA, the binding result is “recognises”.

B14: TCR of SEQ ID NOs 425 and 426 (TCR, V domains shown)
Valpha: KQEVTQIPAALSVPEGENLVLNCSFTDSAIYNLQWFRQDPGKGLTSLLLIQSSQREQTSGRLNASLDKSSGRSTLYIAASQPGDSATYLCAVRDDYKLSFGAGTTVTVRA
Vbeta: NAGVTQTPKFRVLKTGQSMTLLCAQDMNHEYMYWYRQDPGMGLRLIHYSVGEGTTAKGEVPDGYNVSRLKKQNFLLGLESAAPSQTSVYFCASSYGPGQIYGYTFGSGTRLTVV
For the molecule B14, the binding result in the test with MAGEC1 peptide on HLA [2] is given as “recognises”.

B15: TCR of SEQ ID NOs 427 and 428 (TCR, V domains shown)
Valpha: KQEVTQIPAALSVPEGENLVLNCSFTDSAIYNLQWFRQDPGKGLTSLLLIQSSQREQTSGRLNASLDKSSGRSTLYIAASQPGDSATYLCAVRNDYKLSFGAGTTVTVRA
Vbeta: NAGVTQTPKFRVLKTGQSMTLLCAQDMNHEYMYWYRQDPGMGLRLIHYSVGEGTTAKGEVPDGYNVSRLKKQNFLLGLESAAPSQTSVYFCASSYGPGQIYGYTFGPGTRLTVL
Regarding B15, the binding result with MAGEC1 peptide on HLA [2] is listed as “recognises”.

B16: TCR of SEQ ID NOs 397 and 398 (TCR, V domains shown)
Valpha: KQEVTQIPAALSVPEGENLVLNCSFTDSAIYNLQWFRQDPGKGLTSLLLIQSSQREQTSGRLNASLDKSSGRSTLYIAASQPGDSATYLCAAGGYQKVTFGTGTKLQVIP
Vbeta: NAGVTQTPKFRILKIGQSMTLQCTQDMNHNYMYWYRQDPGMGLKLIYYSVGAGITDKGEVPNGYNVSRSTTEDFPLRLLSAAPSQTSVYFCASRRPTGELFFGEGSRLTVL
Turning to B16, the binding result with KLK4 peptide on HLA [1] was “recognises”.

B17: TCR of SEQ ID NOs 431 and 432 (TCR, V domains shown)
Valpha: KQEVTQIPAALSVPEGENLVLNCSFTDSAIYNLQWFRQDPGKGLTSLLLIQSSQREQTSGRLNASLDKSSGRSTLYIAASQPGDSATYLCAVGGYNKLIFGAGTRLAVHP
Vbeta: NAGVTQTPKFQVLKTGQSMTLQCAQDMNHNSMYWYRQDPGMGLRLIYYSASEGTTDKGEVPNGYNVSRSTTEDFPLRLLSAAPSQTSVYFCASSLDPLAEAFFGQGTRLTVV
Regarding B17, the binding result with MAGEC1 peptide on HLA [3] was “recognises”.

B18: TCR of SEQ ID NOs 443 and 444 (TCR, V domains shown)
Valpha: QKEVEQNSGPLSVPEGAIASLNCTYSDRGSQSFFWYRQYSGKSPELIMSIYSNGDKEDGRFTAQLNKASQYVSLLIRDSQPSDSATYLCAVNDSWGKLQFGAGTQVVVTP
Vbeta: DGGITQSPKYLFRKEGQNVTLSCEQNLNHDAMYWYRQDPGQGLRLIYYSQIVNDFQKGDIAEGYSVSREKKESFPLTVTSAQKNPTAFYLCASSMVPGFSEQFFGPGTRLTVL
As for B18, in the test with NPSR1 peptide on HLA, the binding result is “recognises”.

B19: TCR of SEQ ID NOs 445 and 446 (TCR, V domains shown)
Valpha: KQEVTQIPAALSVPEGENLVLNCSFTDSAIYNLQWFRQDPGKGLTSLLLIQSSQREQTSGRLNASLDKSSGRSTLYIAASQPGDSATYLCAVSPVTSYDKVIFGPGTSLSVIP
Vbeta: NAGVTQTPKFRVLKTGQSMTLLCAQDMNHEYMYWYRQDPGMGLRLIYYSASEGTTDKGEVPNGYNVSRLNKREFSLRLESAAPSQTSVYFCASSYSWFGDGTEAFFGQGTRLTVV
Take B19: the binding result in the test with NPSR1 peptide on HLA is given as “recognises”.

B20: TCR of SEQ ID NOs 393 and 394 (TCR, V domains shown)
Valpha: AQSVTQLDSHVSVSEGTPVLLRCNYSSSVPPYLFWYVQYPNQGLQLLLKYTTGATLVKGINGFEAEFKKSETSFHLTKPSAHMSDAAEYFCAVSEDGNKLVFGAGTILRVKS
Vbeta: AAGVIQSPRHLIKEKRETATLKCYPIPRHDTVYWYQQGPGQDPQFLISFYEKMQSDKGSIPDRFSAQQFSDYHSELNMSSLELGDSALYFCASRLTGVSGEGDYGYTFGSGTRLTVV
As for B20, in the test with KLK3 peptide on HLA, the binding result is “recognises”.
